Measured values reported in doi:10.1101/2022.04.02.486817.

Tests used:
[1] = molecular target: AP2 α-appendage (UniProt P17427); experiment: ITC
[2] = molecular target: Cμ2 (UniProt P84092); experiment: ITC
[3] = molecular target: GST-TGN38 (UniProt P19814); experiment: BLI
Sequence of GST-TGN38 (P19814 325-357): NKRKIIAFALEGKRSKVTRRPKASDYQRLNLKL

Sequence of AP2 α-appendage (P17427 702-938): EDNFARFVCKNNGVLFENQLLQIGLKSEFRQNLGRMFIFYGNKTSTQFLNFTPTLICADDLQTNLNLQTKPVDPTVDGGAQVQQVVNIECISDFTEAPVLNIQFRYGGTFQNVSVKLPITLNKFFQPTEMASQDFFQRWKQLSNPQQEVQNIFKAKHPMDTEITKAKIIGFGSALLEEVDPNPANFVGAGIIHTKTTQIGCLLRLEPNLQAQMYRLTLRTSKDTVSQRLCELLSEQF
Sequence of Cμ2 (P84092 158-435): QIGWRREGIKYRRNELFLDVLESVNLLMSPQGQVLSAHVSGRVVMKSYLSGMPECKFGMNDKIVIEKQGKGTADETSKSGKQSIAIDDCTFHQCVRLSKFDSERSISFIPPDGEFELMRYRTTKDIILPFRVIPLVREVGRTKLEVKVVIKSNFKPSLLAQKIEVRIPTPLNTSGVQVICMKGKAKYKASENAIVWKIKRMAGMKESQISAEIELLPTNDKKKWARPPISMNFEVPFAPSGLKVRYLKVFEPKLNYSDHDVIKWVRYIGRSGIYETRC
Sequence of AP2:β2FCHO2-N3+C (P62743 whole entry, looked up, tested part not stated): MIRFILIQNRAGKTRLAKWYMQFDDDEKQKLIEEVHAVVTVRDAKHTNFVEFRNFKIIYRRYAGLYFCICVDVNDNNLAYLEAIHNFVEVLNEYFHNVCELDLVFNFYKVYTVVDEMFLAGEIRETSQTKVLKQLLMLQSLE
Sequence of AP2:β2FCHO2-N3+C (P84092 whole entry, looked up, tested part not stated): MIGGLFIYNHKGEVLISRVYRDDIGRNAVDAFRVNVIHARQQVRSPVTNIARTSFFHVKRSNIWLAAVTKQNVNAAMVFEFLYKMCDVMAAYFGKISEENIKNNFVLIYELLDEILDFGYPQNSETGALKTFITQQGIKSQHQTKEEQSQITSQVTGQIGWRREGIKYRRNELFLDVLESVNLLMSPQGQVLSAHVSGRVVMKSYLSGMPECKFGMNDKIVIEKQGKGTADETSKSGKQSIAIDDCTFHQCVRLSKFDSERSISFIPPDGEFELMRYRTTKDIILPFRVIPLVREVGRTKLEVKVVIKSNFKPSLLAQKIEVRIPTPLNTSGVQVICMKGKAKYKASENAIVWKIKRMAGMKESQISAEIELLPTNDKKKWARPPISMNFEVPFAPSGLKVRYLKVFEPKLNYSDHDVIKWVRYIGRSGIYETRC
Sequence of AP2:β2FCHO2-N3+C (P18484 whole entry, looked up, tested part not stated): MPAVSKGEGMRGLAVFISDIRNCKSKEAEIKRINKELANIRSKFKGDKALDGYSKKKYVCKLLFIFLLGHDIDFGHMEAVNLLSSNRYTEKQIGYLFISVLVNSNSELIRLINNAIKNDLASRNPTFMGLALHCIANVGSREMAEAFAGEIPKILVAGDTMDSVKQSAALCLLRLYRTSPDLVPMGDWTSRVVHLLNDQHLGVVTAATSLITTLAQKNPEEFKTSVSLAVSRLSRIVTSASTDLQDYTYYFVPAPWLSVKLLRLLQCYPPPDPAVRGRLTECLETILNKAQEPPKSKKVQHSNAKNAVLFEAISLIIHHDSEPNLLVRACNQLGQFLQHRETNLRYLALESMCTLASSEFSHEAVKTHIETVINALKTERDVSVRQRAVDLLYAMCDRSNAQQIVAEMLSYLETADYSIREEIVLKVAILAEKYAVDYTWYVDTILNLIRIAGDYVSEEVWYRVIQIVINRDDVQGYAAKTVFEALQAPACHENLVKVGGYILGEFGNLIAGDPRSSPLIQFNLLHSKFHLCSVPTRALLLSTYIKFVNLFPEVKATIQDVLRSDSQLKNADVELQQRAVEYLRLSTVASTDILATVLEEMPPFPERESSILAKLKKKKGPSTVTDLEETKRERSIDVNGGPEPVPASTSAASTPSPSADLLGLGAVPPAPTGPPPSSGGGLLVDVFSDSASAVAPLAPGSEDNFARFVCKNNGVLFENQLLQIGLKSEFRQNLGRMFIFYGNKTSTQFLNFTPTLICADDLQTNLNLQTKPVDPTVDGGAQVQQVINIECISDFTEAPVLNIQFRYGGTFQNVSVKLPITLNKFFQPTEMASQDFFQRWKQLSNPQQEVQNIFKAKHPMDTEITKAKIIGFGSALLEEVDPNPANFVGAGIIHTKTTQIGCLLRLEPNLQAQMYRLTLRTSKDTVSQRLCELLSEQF

Row | Substance | Kd [1] | also measured
1 | FCHO2 N1+N2 E320A+E321A+K326A (domain or fragment) |  | fold reduction of binding against the wild type [2]: 5 fold
2 | FCHO1 C block LEStoAAA (from UniProt O14526 427-448) (peptide) | > 500 µM | 
3 | AP2:β2FCHO2-N3+C (from UniProt P18484 1-938; P84092 1-435; P62743 1-142) (complex) |  | fold tighter binding than AP2 core [3]: 3 fold

Second part, led by results:

Row | Kd [1] | Substance | also measured
4 | > 500 µM | FCHO1 C block PPtoGG (from UniProt O14526 427-448) (peptide) | 
5 | > 500 µM | FCHO1 C block FGtoAA (from UniProt O14526 427-448) (peptide) | 
